One molecule from patent US12410262B2, “Peptide conjugates of cytotoxins as therapeutics” (Cybrexa 2, Inc., priority 2019, dated 2025) can be followed below.

Data set [1] can be described thus: Bone marrow toxicity study in a mouse model. The class given is in vivo, athymic nude Foxn^nu mice. The conditions noted are these: 2.6 and 5.2 μmoles/kg (10, 20 mg/kg) IP once daily for 4 days. How it is done: Six-week-old female athymic nude Foxn^nu mice were obtained from Taconic Labs (Cat #NCRNU-F) and were housed 5 per cage on Alpha-Dri bedding in a disposable caging system (Innovive). Human HCT116 cancer cells derived from colorectal carcinoma were diluted 1:1 in Phenol Red-free Matrigel and subcutaneously implanted into the left flank of each mouse at a density of 2.5×10^6 cells in 100 μL. When xenografts reached a minimal volume of 200 mm^3, mice were administered intraperitoneal doses of vehicle or 2.6 or 5.2 μmoles/kg of either unconjugated exatecan (equivalent to 1.15 or 2.3 mg/kg exatecan, respectively) or Compound 11 (equivalent to 10 or 20 mg/kg Compound 11, respectively). Compounds were administered once daily for 4 days.
Tumor bearing mice were euthanized by cervical dislocation 6 hours after the last dose. Femurs were removed, and bone marrow was extruded into 50 mL conical tubes by flushing the bones with a 23-gauge needle fitted on a 5 cc syringe containing PBS+2% fetal bovine serum. Bone marrow was homogenized by gentle pipetting and filtered through 100 μm nylon mesh filters and cells were pelleted by centrifugation at 1200 rpm for 5 minutes at 4° C. Red blood cells were lysed with 3 mL of lysis buffer for 2 minutes at room temperature. […] Cell pellets were suspended in 5 mL of PBS and cell count was assessed by trypan blue exclusion. […]

The nature of another data set: Plasma stability studies. The class given is in vitro ADME. The conditions noted are these: rat plasma, 100 μM conjugate, 37° C. In short, it runs like this:
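Conjugate at 100 μM final in rat plasma (diluted from DMSO stock via 100 mM Tris, pH 7.5), incubated at 37° C for up to 24 h, sampled at 0, 4 and 24 h. Samples acid/acetonitrile-extracted and analysed by HPLC; remaining conjugate expressed as peak area relative to time 0 ×100.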

Data set [2] in a line: Glutathione cleavage study. Conditions: Tris buffer with 10 mM glutathione, Glutathione Challenge (10 mM), 100 μM conjugate, Tris pH 7.5, 37° C. The class given is in vitro ADME. In short, it runs like this:
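Conjugate stocks at 20 mM in 100% DMSO were diluted in 100 mM Tris, pH 7.5, to a final 100 μM. Freshly made glutathione was added to 10 mM, and samples were incubated at 37° C. for up to 24 hrs. Samples were extracted with phosphoric acid and acetonitrile/0.1% TFA, centrifuged, and analyzed by HPLC, with peak areas compared to the time-0 conjugate peak.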

With `CC[C@@]1(O)C(=O)OCc2c1cc1n(c2=O)Cc2c-1nc1cc(F)c(C)c3c1c2[C@@H](NC(=O)O[C@H]1CCCC[C@@H]1SSC[C@H](NC(=O)[C@H](Cc1c[nH]c2ccccc12)NC(=O)[C@H](CC(C)C)NC(=O)[C@H](CC(C)C)NC(=O)[C@H](CC(=O)O)NC(=O)[C@H](CC(C)C)NC(=O)[C@H](CC(C)C)NC(=O)[C@H](CC(C)C)NC(=O)[C@@H](NC(=O)[C@H](CC(=O)O)NC(=O)[C@@H](NC(=O)[C@@H]1CCCN1C(=O)[C@H](Cc1ccccc1)NC(=O)[C@H](CC(C)C)NC(=O)[C@H](CC(C)C)NC(=O)[C@H](CC(=O)O)NC(=O)[C@H](CC(C)C)NC(=O)[C@H](Cc1ccc(O)cc1)NC(=O)[C@H](C)NC(=O)[C@H](CCCNC(=N)N)NC(=O)[C@H](Cc1c[nH]c2ccccc12)NC(=O)[C@@H]1CCCN1C(=O)[C@H](CC(N)=O)NC(=O)[C@H](CCC(N)=O)NC(=O)[C@H](CC(=O)O)NC(=O)[C@H](CC(=O)O)NC(=O)[C@H](C)N)[C@@H](C)O)[C@@H](C)O)C(=O)NCC(=O)O)CC3` [Compound 11], in data set [1], the “bone marrow toxicity (total bone marrow counts from femurs)” value is “did not display the bone marrow toxicity”. Also, the fraction remaining at 4 h, 100 µM in the data set “Plasma stability studies” (4 hrs) was 108%; in data set [2] (4 h) it was 50.1%. Also, the amount remaining at 24 h, 100 µM turned out to be 107% in “Plasma stability studies” (24 hrs) and 10.2% in data set [2] (24 h).
